Laboratory results from publication PMC10095184.

Experiments:
[1] = system: NS5-6xHis AHSV-4 (African horse sickness virus 4); assay: pull-down RT-qPCR
[2] = system: NS5-6xHis BTV-1 (Bluetongue virus 1); assay: pull-down RT-qPCR

Work on BTV-1 Seg-1 mRNA yielded a binding signal (Ct (ctrl 14.81)) [1] of 11.3, a binding signal (Ct (ctrl 18.09)) [1] of 11.6 and a binding signal (Ct (ctrl 14.81)) [2] of 10.8. The binding signal (Ct (ctrl 18.09)) [2] was 10.9.

Substance BTV-1 Seg-7 mRNA has a binding signal (Ct (ctrl 16.17)) [1] of 11.8, a binding signal (Ct (ctrl 16.39)) [1] of 10.9 and a binding signal (Ct (ctrl 16.17)) [2] of 11.1. It also gave a binding signal (Ct (ctrl 16.39)) [2] of 10.2.

BTV-1 Seg-3 mRNA showed a binding signal (Ct (ctrl 19.32)) [1] of 11.9, a binding signal (Ct (ctrl 19.87)) [1] of 11.8 and a binding signal (Ct (ctrl 19.32)) [2] of 11.2. It also gave a binding signal (Ct (ctrl 19.87)) [2] of 11.5.
